Test in all cases: cell-based or functional assay
One assay deals with T1, A20, P21580.
T1 chain: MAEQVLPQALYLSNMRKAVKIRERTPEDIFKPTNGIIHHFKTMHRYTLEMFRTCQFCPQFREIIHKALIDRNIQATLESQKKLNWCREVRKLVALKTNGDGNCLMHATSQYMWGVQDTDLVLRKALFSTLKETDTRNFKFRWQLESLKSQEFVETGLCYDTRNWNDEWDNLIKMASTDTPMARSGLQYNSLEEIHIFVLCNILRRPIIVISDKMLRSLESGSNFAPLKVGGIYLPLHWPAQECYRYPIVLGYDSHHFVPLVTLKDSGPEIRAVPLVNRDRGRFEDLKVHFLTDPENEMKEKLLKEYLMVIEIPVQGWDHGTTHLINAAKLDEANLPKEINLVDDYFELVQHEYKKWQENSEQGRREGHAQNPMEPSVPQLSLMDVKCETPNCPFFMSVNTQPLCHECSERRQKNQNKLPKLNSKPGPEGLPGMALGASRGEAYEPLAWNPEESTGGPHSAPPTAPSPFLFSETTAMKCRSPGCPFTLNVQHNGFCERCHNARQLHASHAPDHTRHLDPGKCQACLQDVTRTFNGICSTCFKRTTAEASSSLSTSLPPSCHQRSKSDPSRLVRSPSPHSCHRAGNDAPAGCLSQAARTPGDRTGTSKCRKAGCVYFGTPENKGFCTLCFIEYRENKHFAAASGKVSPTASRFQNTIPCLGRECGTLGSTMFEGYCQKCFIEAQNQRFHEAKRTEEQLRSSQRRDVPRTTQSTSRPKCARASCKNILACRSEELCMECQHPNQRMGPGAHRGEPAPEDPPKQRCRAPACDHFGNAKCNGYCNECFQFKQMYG

The target in another assay is T2, COX2(h) (human), P35354.
T2 chain: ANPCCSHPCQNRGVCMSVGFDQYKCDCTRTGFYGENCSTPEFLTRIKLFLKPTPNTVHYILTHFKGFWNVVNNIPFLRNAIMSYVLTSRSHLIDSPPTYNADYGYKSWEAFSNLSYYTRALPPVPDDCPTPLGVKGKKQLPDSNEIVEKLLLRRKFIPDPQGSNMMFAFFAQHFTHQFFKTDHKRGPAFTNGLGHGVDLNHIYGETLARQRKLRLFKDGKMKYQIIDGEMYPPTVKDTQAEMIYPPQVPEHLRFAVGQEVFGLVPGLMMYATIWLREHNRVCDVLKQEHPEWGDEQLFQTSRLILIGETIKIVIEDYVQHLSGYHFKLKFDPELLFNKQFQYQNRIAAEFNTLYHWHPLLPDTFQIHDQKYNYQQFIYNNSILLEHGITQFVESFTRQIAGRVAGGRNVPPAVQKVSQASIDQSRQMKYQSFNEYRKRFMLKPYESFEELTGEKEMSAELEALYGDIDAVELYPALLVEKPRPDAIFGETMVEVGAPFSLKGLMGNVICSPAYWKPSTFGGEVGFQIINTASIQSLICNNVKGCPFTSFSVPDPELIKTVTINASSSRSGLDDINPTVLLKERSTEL

In a further assay the target is T3, Caspase-7, P55210.
T3 chain: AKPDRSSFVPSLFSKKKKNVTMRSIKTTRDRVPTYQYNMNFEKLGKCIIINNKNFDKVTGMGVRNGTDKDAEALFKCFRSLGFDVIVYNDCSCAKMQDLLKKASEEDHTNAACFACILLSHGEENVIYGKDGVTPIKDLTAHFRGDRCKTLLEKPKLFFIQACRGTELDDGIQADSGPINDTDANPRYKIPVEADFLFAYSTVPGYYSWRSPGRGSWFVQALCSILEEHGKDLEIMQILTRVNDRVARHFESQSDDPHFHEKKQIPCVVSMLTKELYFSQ

The target in the next assay is T4, Caspase-9, P55211.
T4 chain: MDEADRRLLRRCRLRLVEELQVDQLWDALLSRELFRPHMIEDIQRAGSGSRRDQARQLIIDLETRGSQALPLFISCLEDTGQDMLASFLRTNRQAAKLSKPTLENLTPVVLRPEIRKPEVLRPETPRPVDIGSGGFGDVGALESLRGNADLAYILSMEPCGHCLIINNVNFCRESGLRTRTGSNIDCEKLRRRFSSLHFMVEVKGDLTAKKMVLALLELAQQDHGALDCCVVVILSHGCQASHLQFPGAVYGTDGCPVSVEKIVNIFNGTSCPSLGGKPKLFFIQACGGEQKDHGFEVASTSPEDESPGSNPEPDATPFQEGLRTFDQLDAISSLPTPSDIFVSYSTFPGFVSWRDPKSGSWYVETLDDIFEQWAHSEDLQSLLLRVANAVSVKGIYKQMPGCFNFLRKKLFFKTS

In another assay the target is T5, Cathepsin F, Q9UBX1.
T5 chain: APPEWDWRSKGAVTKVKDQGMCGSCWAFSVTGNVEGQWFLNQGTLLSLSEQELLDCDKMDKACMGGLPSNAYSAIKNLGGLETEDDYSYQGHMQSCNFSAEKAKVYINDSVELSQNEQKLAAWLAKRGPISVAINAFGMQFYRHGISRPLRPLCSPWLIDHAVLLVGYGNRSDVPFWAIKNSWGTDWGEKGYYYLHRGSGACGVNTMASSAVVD

In the next assay the target is DPP9, Q86TI2.
Sequence of DPP9, Q86TI2 (Q86TI2 whole entry): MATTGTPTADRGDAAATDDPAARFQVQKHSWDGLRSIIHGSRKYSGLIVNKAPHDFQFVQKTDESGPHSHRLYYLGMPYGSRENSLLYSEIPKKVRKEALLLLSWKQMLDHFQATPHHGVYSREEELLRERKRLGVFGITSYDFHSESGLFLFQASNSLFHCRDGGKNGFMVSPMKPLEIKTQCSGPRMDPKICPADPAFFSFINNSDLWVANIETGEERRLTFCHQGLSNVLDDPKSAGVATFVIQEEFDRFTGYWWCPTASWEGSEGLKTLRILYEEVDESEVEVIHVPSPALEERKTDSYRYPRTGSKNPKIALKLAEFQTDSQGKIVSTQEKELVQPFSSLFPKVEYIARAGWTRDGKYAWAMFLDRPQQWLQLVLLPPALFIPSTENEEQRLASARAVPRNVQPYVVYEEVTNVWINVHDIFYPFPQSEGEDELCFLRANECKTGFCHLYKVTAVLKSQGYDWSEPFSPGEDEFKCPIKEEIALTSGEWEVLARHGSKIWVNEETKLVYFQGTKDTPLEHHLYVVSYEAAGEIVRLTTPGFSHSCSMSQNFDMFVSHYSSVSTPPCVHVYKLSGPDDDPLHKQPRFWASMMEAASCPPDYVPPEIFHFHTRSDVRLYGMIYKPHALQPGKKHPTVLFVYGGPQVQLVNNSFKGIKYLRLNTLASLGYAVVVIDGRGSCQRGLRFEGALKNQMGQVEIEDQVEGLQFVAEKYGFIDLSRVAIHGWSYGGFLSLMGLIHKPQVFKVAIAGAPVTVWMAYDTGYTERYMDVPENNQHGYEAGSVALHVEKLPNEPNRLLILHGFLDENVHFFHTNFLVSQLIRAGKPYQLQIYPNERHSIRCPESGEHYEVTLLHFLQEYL
For assay [1], the target named is Matrix metalloprotease 9 (mutant Q279R), P14780.
Sequence of Matrix metalloprotease 9 (mutant Q279R), P14780 (P14780 107-707 Q279R): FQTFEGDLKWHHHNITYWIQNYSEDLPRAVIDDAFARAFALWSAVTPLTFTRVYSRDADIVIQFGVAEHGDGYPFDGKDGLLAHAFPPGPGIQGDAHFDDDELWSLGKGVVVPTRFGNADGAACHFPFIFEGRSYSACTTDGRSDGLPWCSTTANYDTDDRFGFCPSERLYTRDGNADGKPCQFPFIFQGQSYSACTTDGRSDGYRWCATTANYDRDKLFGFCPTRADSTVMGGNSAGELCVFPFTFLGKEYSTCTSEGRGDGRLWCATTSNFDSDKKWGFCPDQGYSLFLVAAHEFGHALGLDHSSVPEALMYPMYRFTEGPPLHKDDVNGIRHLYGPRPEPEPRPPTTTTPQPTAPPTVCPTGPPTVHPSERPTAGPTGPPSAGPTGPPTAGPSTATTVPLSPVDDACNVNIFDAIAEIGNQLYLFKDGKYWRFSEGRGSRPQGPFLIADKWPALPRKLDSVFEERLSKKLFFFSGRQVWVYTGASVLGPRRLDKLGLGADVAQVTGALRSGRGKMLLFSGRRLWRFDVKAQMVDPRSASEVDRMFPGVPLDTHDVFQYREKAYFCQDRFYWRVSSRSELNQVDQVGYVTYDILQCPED

Bridge positions count the residues as written; N and C are the ends.

B1: Hex-[Cys(tMeBn(DOTA-AET))-Pro-Pro-Thr-Gln-Phe-Cys]-OH (peptide)
peptide: Hex-CPPTQFC-OH
modifications: bridge 1-7; not fully specified (bridges); printed as Hex-[Cys(tMeBn(DOTA-AET))-Pro-Pro-Thr-Gln-Phe-Cys]-OH
Regarding B1, the Percentage inhibition (%) at 1 µM with A20, P21580 was 1%; with Caspase-7, P55210 it was -1%; with Caspase-9, P55211 it was -1%; with Cathepsin F, Q9UBX1 it was -23%; in the assay with DPP9, Q86TI2 it was -1%; in assay [1], 3%. Also, the Percentage inhibition (%) at 10 µM was 0% in the assay with A20, P21580; -7% in the assay with Caspase-7, P55210; -2% with Caspase-9, P55211; -25% in the assay with Cathepsin F, Q9UBX1; -5% with DPP9, Q86TI2; 2% in assay [1]. Further, in the assay with COX2(h) (human), P35354, the % inhibition of control enzyme activity, compound at 10 µM is -22%.

B2: Hex-[Cys(tMeBn(DOTA-PP))-Pro-Pro-Thr-Gln-Phe-Cys]-Asp-NH2 (peptide)
peptide: Hex-CPPTQFCD-NH2
modifications: bridge 1-7; not fully specified (bridges); printed as Hex-[Cys(tMeBn(DOTA-PP))-Pro-Pro-Thr-Gln-Phe-Cys]-Asp-NH2
Regarding B2, the Percentage inhibition (%) at 1 µM is 2% with A20, P21580; -3% with Caspase-7, P55210; 5% with Caspase-9, P55211; -3% in the assay with Cathepsin F, Q9UBX1; -1% with DPP9, Q86TI2; 3% in assay [1]. For the same molecule, the Percentage inhibition (%) at 10 µM was -4% in the assay with A20, P21580; -3% in the assay with Caspase-7, P55210; 8% in the assay with Caspase-9, P55211; -24% with Cathepsin F, Q9UBX1; 0% with DPP9, Q86TI2; 2% in assay [1]. The % inhibition of control enzyme activity, compound at 10 µM with COX2(h) (human), P35354 is -14%.

The values are drawn from patent US20230212549A1, “COMPOUNDS COMPRISING A […] LIGAND AND USE THEREOF” (priority 2021, published 2023).
